Assay results as given in article PMC10652096 (The Journal of Biological Chemistry, 2023).

Assays:
human Hyper-IL-6 (HIL-6) [1] = biological target: human Hyper-IL-6 (HIL-6) (human); assay: cell-based or functional assay
Hyper IL-12 (HIL-12) [2] = biological target: Hyper IL-12 (HIL-12) (human); assay: cell-based or functional assay
human Hyper-IL-6 (HIL-6) [3] = biological target: T1, human Hyper-IL-6 (HIL-6) (human); assay: SPR; Fc fusion captured on a Protein A sensor chip, cytokine injected (HIL-6, HIL-12 50 to 0.1 nM, 30 μl/min, 120 s association, 300 s dissociation); 25 °C, PBS pH 7.4, 0.05% surfactant P20; 1:1 binding model; Biacore X100; conditions: both partners purified
T1 construct: soluble IL-6 receptor (sIL-6R), human; flexible peptide linker; Interleukin 6 (IL-6), human; also called hHIL-6; source: recombinant, produced and purified as described (27)

Hyper IL-12 (HIL-12) [4] = biological target: T2, Hyper IL-12 (HIL-12) (human); assay: as above; conditions: both partners purified
T2 construct: IL-12/IL-23 subunit p40, human; flexible linker; IL-12 subunit p35, human; also called hHIL-12; FLAG-tagged HIL-12

| IC50 of inhibition of proliferation of Ba/F3-gp130 cells stimulated with 150 ng/ml IL-6 and 300 ng/ml sIL-6R (IL-6 trans-signaling via gp130; separate IL-6 and sIL-6R, not the fused HIL-6) (human Hyper-IL-6 (HIL-6) [1]) [pM] | IC50 of inhibition of proliferation of Ba/F3-hIL-12Rβ1-hIL-12Rβ2 cells induced by 10 ng/ml HIL-12, 72 h, CellTiter-Blue (Hyper IL-12 (HIL-12) [2]) [pM] | Kd (human Hyper-IL-6 (HIL-6) [3]) [pM] | koff (human Hyper-IL-6 (HIL-6) [3]) [s⁻¹] | kon (human Hyper-IL-6 (HIL-6) [3]) [M⁻¹ s⁻¹] | Kd (Hyper IL-12 (HIL-12) [4]) [pM] | koff (Hyper IL-12 (HIL-12) [4]) [s⁻¹] | kon (Hyper IL-12 (HIL-12) [4]) [M⁻¹ s⁻¹] | Binder |
| --- | --- | --- | --- | --- | --- | --- | --- | --- |
| 560 | 7810 | 28.9 | 7.02e-05 | 2.43e+06 | 230 | 0.000163 | 710000 | cs130-IL-12/23^VHHFc (Fc fusion) ELLDPCGYISPESPVVQLHSNFTAVCVLKEKCMDYFHVNANYIVWKTNHFTIPKEQYTIINRTASSVTFTDIASLNIQLTCNILTFGQLEQNVYGITIISGLPPEKPKNLSCIVNEGKKMRCEWDGGRETHLETNFTLKSEWATHKFADCKAKRDTPTSCTVDYSTVYFVNIEVWVEAENALGKVTSDHINFDPVYKVKPNPPHNLSVINSEELSSILKLTWTNPSIKSVIILKYNIQYRTKDASTWSQIPPEDTASTRSSFTVQDLKPFTEYVFRIRCMKEDGKGYWSDWSEEASGITYEDDVQFVESGGGSVHAGGSLRLNCATSGYIYSTYCMGWFRQAPGKEREGVAHIYTNSGRTYYADSVKGRFTISQDNAKNTVYLQMNSLKPEDTAIYYCAARPSIRCASFSATEYKDWGQGTQVTVSSRENLYFQMKYLLPTAAAGLLLLAAQPAMAEVQLVESGGGLVQAGGSLRLSCAASGRTFSWSAVGWFRQAPGKEREFVAAIRWSGGSPYYADSVKDRFTISRDNAKNTVYLQMNSLRPEDTAVYLCGETSLFPTSRGSHYDTWGQGTQVTVSSGSGWSHPQFEK |
| 510 |  | 48.8 | 8.55e-05 | 1.75e+06 |  |  |  | cs130-TNF^VHHFc (Fc fusion) ELLDPCGYISPESPVVQLHSNFTAVCVLKEKCMDYFHVNANYIVWKTNHFTIPKEQYTIINRTASSVTFTDIASLNIQLTCNILTFGQLEQNVYGITIISGLPPEKPKNLSCIVNEGKKMRCEWDGGRETHLETNFTLKSEWATHKFADCKAKRDTPTSCTVDYSTVYFVNIEVWVEAENALGKVTSDHINFDPVYKVKPNPPHNLSVINSEELSSILKLTWTNPSIKSVIILKYNIQYRTKDASTWSQIPPEDTASTRSSFTVQDLKPFTEYVFRIRCMKEDGKGYWSDWSEEASGITYEDDVQFVESGGGSVHAGGSLRLNCATSGYIYSTYCMGWFRQAPGKEREGVAHIYTNSGRTYYADSVKGRFTISQDNAKNTVYLQMNSLKPEDTAIYYCAARPSIRCASFSATEYKDWGQGTQVTVSSGGGGSGGGGSGGGGTG |
